Test results reported in US8003599B2, “Inhibitors of L1 and ADAM10 for the treatment of carcinomas” (Deutsches Krebsforschungszentrum, priority 2004, dated 2011).

Test system: HEK293 cells
Test: Haptotactic cell migration assay in Transwell chambers, HEK293 cells
Assay type: cell-based, human
Description: (C) Inhibition of haptotactic cell migration in the absence or presence of the indicated mAbs to integrins at a final concentration of 10 μg/ml. FN at 10 μg/ml or BSA for control were coated onto the backside of Transwell chambers. Cells were seeded into the top chamber and allowed to transmigrate for 16 hr at 37° C. The antibody was present during the assay time. Each determination was done in quadruplicate and transmigrated cells were stained from the back of the filter. The dye was eluted from the filter and measured at 595 nm. The amount of dye is proportional to the number of transmigrated cells. Values for the migration on BSA were below 0.25 O.D. units for each cell type.
The haptotactic cell migration assay on fibronectin, laminin or BSA was performed in Transwell chambers (Costar, 6.5 mm diameter, 5 um pore size) and was described in detail elsewhere (Mechtersheimer et al., supra). Transmigrated cells were quantified by staining of the transwell membranes with cristalviolet solution as described (Mechtersheimer at al., supra). The eluted dye was measured at 595 nm in an ELISA reader.

Molecule | induction of cell migration by ascites derived soluble L1 (fibronectin as substrate (FIG. 4B)) | induction of HEK293 migration by L1mutSH3-HEK293 supernatant (conditioned medium concentrated tenfold)
soluble L1: affinity purified soluble L1 from ascites fluid of ovarian carcinoma patients, 150 kDa and 200 kDa (protein) IQIPEEYEGHHVMEPPVITEQSPRRLVVFPTDDISLKCEASGKPEVQFRWTRDGVHFKPKEELGVTVYQSPHSGSFTITGNNSNFAQRFQGIYRCFASNKLGTAMSHEIRLMAEGAPKWPKETVKPVEVEEGESVVLPCNPPPSAEPLRIYWMNSKILHIKQDERVTMGQNGNLYFANVLTSDNHSDYICHAHFPGTRTIIQKEPIDLRVKATNSMIDRKPRLLFPTNSSSHLVALQGQPLVLECIAEGFPTPTIKWLRPSGPMPADRVTYQNHNKTLQLLKVGEEDDGEYRCLAENSLGSARHAYYVTVEAAPYWLHKPQSHLYGPGETARLDCQVQGRPQPEVTWRINGIPVEELAKDQKYRIQRGALILSNVQPSDTMVTQCEARNRHGLLLANAYIYVVQLPAKILTADNQTYMAVQGSTAYLLCKAFGAPVPSVQWLDEDGTTVLQDERFFPYANGTLGIRDLQANDTGRYFCLAANDQNNVTIMANLKVKDATQITQGPRSTIEKKGSRVTFTCQASFDPSLQPSITWRGDGRDLQELGDSDKYFIEDGRLVIHSLDYSDQGNYSCVASTELDVVESRAQLLVVGSPGPVPRLVLSDLHLLTQSQVRVSWSPAEDHNAPIEKYDIEFEDKEMAPEKWYSLGKVPGNQTSTTLKLSPYVHYTFRVTAINKYGPGEPSPVSETVVTPEAAPEKNPVDVKGEGNETTNMVITWKPLRWMDWNAPQVQYRVQWRPQGTRGPWQEQIVSDPFLVVSNTSTFVPYEIKVQAVNSQGKGPEPQVTIGYSGEDYPQAIPELEGIEILNSSAVLVKWRPVDLAQVKGHLRGYNVTYWREGSQRKHSKRHIHKDHVVVPANTTSVILSGLRPYSSYHLEVQAFNGRGSGPASEFTFSTPEGVPGHPEALHLECQSNTSLLLRWQPPLSHNGVLTGYVLSYHPLDEGGKGQLSFNLRDPELRTHNLTDLSPHLRYRFQLQATTKEGPGEAIVREGGTMALSGISDFGNISATAGENYSVVSWVPKEGQCNFRFHILFKALGEEKGGASLSPQYVSYNQSSYTQWDLQPDTDYEIHLFKERMFRHQMAVKTNGTGRVRLPPAGFATE | potent dose-dependent inducer of cell migration | 
soluble L1 released from HEK293-hL1mutSH3 cells: supernatant collected from HEK293-hL1mutSH3 cells, concentrated tenfold (protein, UniProt P32004 20-1120, looked up, extracellular domain from SH3-motif mutant L1, supernatant collected from HEK293-hL1mutSH3 cells, concentrated tenfold) extracellular domain: IQIPEEYEGHHVMEPPVITEQSPRRLVVFPTDDISLKCEASGKPEVQFRWTRDGVHFKPKEELGVTVYQSPHSGSFTITGNNSNFAQRFQGIYRCFASNKLGTAMSHEIRLMAEGAPKWPKETVKPVEVEEGESVVLPCNPPPSAEPLRIYWMNSKILHIKQDERVTMGQNGNLYFANVLTSDNHSDYICHAHFPGTRTIIQKEPIDLRVKATNSMIDRKPRLLFPTNSSSHLVALQGQPLVLECIAEGFPTPTIKWLRPSGPMPADRVTYQNHNKTLQLLKVGEEDDGEYRCLAENSLGSARHAYYVTVEAAPYWLHKPQSHLYGPGETARLDCQVQGRPQPEVTWRINGIPVEELAKDQKYRIQRGALILSNVQPSDTMVTQCEARNRHGLLLANAYIYVVQLPAKILTADNQTYMAVQGSTAYLLCKAFGAPVPSVQWLDEDGTTVLQDERFFPYANGTLGIRDLQANDTGRYFCLAANDQNNVTIMANLKVKDATQITQGPRSTIEKKGSRVTFTCQASFDPSLQPSITWRGDGRDLQELGDSDKYFIEDGRLVIHSLDYSDQGNYSCVASTELDVVESRAQLLVVGSPGPVPRLVLSDLHLLTQSQVRVSWSPAEDHNAPIEKYDIEFEDKEMAPEKWYSLGKVPGNQTSTTLKLSPYVHYTFRVTAINKYGPGEPSPVSETVVTPEAAPEKNPVDVKGEGNETTNMVITWKPLRWMDWNAPQVQYRVQWRPQGTRGPWQEQIVSDPFLVVSNTSTFVPYEIKVQAVNSQGKGPEPQVTIGYSGEDYPQAIPELEGIEILNSSAVLVKWRPVDLAQVKGHLRGYNVTYWREGSQRKHSKRHIHKDHVVVPANTTSVILSGLRPYSSYHLEVQAFNGRGSGPASEFTFSTPEGVPGHPEALHLECQSNTSLLLRWQPPLSHNGVLTGYVLSYHPLDEGGKGQLSFNLRDPELRTHNLTDLSPHLRYRFQLQATTKEGPGEAIVREGGTMALSGISDFGNISATAGENYSVVSWVPKEGQCNFRFHILFKALGEEKGGASLSPQYVSYNQSSYTQWDLQPDTDYEIHLFKERMFRHQMAVKTNGTGRVRLPPAGFATE |  | able to induce migration
